Key:
Test in all cases: cell-based or functional assay
[1] = molecular target: HIV-1 Env of pseudovirus Ce2060_G9 (HIV-1)
[2] = molecular target: HIV-1 Env of pseudovirus T251-18 (HIV-1)
[3] = molecular target: HIV-1 Env of pseudovirus ZM109F.PB4 (HIV-1)
[4] = molecular target: HIV-1 Env of pseudovirus C2101.c01 (HIV-1)
[5] = molecular target: HIV-1 Env of pseudovirus X2131_C1_B5 (HIV-1)
[6] = molecular target: HIV-1 Env of pseudovirus 6535.3 (HIV-1)
[7] = molecular target: HIV-1 Env of pseudovirus X2088_c9 (HIV-1)
[8] = molecular target: HIV-1 Env of pseudovirus CAP210.2.00.E8 (HIV-1)
[9] = molecular target: HIV-1 Env of pseudovirus Du156.12 (HIV-1)
[10] = molecular target: HIV-1 Env of pseudovirus CNE30 (HIV-1)
[11] = molecular target: HIV-1 Env of pseudovirus 1012_11_TC21_3257 (HIV-1)
[12] = molecular target: HIV-1 Env of pseudovirus 6952.v1.c20 (HIV-1)
[13] = molecular target: HIV-1 Env of pseudovirus BJOX025000.01.1 (HIV-1)
[14] = molecular target: HIV-1 Env of pseudovirus T255-34 (HIV-1)
[15] = molecular target: HIV-1 Env of pseudovirus Q842.d12 (HIV-1)
[16] = molecular target: HIV-1 Env of pseudovirus BJOX010000.06.2 (HIV-1)
[17] = molecular target: HIV-1 Env of pseudovirus X1193_c1 (HIV-1)
[18] = molecular target: HIV-1 Env of pseudovirus Ce704809221_1B3 (HIV-1)
[19] = molecular target: HIV-1 Env of pseudovirus Q769.d22 (HIV-1)
[20] = molecular target: HIV-1 Env of pseudovirus Ce0393_C3 (HIV-1)
[21] = molecular target: HIV-1 Env of pseudovirus PVO.4 (HIV-1)

B1: N49P23 (antibody, V domains shown)
VH: QVRLVQSGAGARKTGASMKLSCSTSGYTFTTHHGHFINWVRQARGQGLEWMGWMNPMTGQMNIEGKFQGRVTLTRDIYSDTAYMEMTRLTTGDTGTYYCARGDFGQNYPFHYWGQGSLVIVSS
VL: LSALTQPASVSGSPGQSVTISCSGTNRYLVSWYQQHPDKAPKLIIYDDNKRPSGISDRFSASRPDDTASLTISGLQTGDEATYWCASYERFGGGTRLTVLS
IC50 [1]: 0.18 µg/mL | IC80 [1]: 0.849 µg/mL | MPI [1]: 99 | IC50 [2]: > 50 µg/mL | IC80 [2]: > 50 µg/mL | MPI [2]: 18 | IC50 [3]: 0.039 µg/mL | IC80 [3]: 0.18 µg/mL | MPI [3]: 100 | IC50 [4]: 0.056 µg/mL | IC80 [4]: 0.362 µg/mL | MPI [4]: 100 | IC50 [5]: 0.08 µg/mL | IC80 [5]: 0.28 µg/mL | MPI [5]: 100 | IC50 [6]: 0.127 µg/mL | IC80 [6]: 0.855 µg/mL | MPI [6]: 100 | IC50 [7]: > 50 µg/mL | IC80 [7]: > 50 µg/mL | MPI [7]: 10 | IC50 [8]: > 50 µg/mL | IC80 [8]: > 50 µg/mL | MPI [8]: 2 | IC50 [9]: > 50 µg/mL | IC80 [9]: > 50 µg/mL | MPI [9]: 0 | IC50 [10]: 0.143 µg/mL | IC80 [10]: 0.68 µg/mL | MPI [10]: 100 | IC50 [11]: 0.013 µg/mL | IC80 [11]: 0.085 µg/mL | MPI [11]: 100 | IC50 [12]: 0.007 µg/mL | IC80 [12]: 0.023 µg/mL | MPI [12]: 100 | IC50 [13]: > 50 µg/mL | IC80 [13]: > 50 µg/mL | MPI [13]: 0 | IC50 [14]: > 50 µg/mL | IC80 [14]: > 50 µg/mL | MPI [14]: 20 | IC50 [15]: 0.007 µg/mL | IC80 [15]: 0.022 µg/mL | MPI [15]: 100 | IC50 [16]: 0.284 µg/mL | IC80 [16]: 2.08 µg/mL | MPI [16]: 100 | IC50 [17]: 0.008 µg/mL | IC80 [17]: 0.038 µg/mL | MPI [17]: 100 | IC50 [18]: 0.083 µg/mL | IC80 [18]: 0.643 µg/mL | MPI [18]: 100 | IC50 [19]: 0.005 µg/mL | IC80 [19]: 0.025 µg/mL | MPI [19]: 100 | IC50 [20]: > 50 µg/mL | IC80 [20]: > 50 µg/mL | MPI [20]: 29 | IC50 [21]: 0.087 µg/mL | IC80 [21]: 0.43 µg/mL | MPI [21]: 100

B2: N49P22 (antibody, V domains shown)
V domain 1: HIQLLQSGPQVKKSGDTVRISCETSGYNFVDSRIHWVRQTPEKRLRWMGWINPLQGGVNYAPEFQGRIRMTRDTFIDTVYVDLSGLTPADTAYYYCARGIDGKSYPFHFWGHGTRVTVFS
V domain 2: RFALTQPASVSGSPGQTITITCAGGSVSWFHFPPGKTPRLIIYESSKRPSGVSPRFSGSQSGSTASLIISGLQSDDEGTYFCSILEFFGRGTLVTVLS
IC50 [1]: > 50 µg/mL | IC80 [1]: > 50 µg/mL | MPI [1]: 19 | IC50 [2]: 0.58 µg/mL | IC80 [2]: 3.09 µg/mL | MPI [2]: 99 | IC50 [3]: > 50 µg/mL | IC80 [3]: > 50 µg/mL | MPI [3]: 1 | IC50 [4]: 0.171 µg/mL | IC80 [4]: 1.06 µg/mL | MPI [4]: 99 | IC50 [5]: > 50 µg/mL | IC80 [5]: > 50 µg/mL | MPI [5]: 44 | IC50 [6]: > 50 µg/mL | IC80 [6]: > 50 µg/mL | MPI [6]: 5 | IC50 [7]: > 50 µg/mL | IC80 [7]: > 50 µg/mL | MPI [7]: 8 | IC50 [8]: > 50 µg/mL | IC80 [8]: > 50 µg/mL | MPI [8]: 6 | IC50 [9]: > 50 µg/mL | IC80 [9]: > 50 µg/mL | MPI [9]: 4 | IC50 [10]: > 50 µg/mL | IC80 [10]: > 50 µg/mL | MPI [10]: 30 | IC50 [11]: 15.7 µg/mL | IC80 [11]: > 50 µg/mL | MPI [11]: 53 | IC50 [12]: 33.2 µg/mL | IC80 [12]: > 50 µg/mL | MPI [12]: 56 | IC50 [13]: > 50 µg/mL | IC80 [13]: > 50 µg/mL | MPI [13]: 0 | IC50 [14]: 38.8 µg/mL | IC80 [14]: > 50 µg/mL | MPI [14]: 55 | IC50 [15]: 0.079 µg/mL | IC80 [15]: 0.359 µg/mL | MPI [15]: 100 | IC50 [16]: > 50 µg/mL | IC80 [16]: > 50 µg/mL | MPI [16]: 0 | IC50 [17]: 3.49 µg/mL | IC80 [17]: 28.5 µg/mL | MPI [17]: 85 | IC50 [18]: 15.8 µg/mL | IC80 [18]: > 50 µg/mL | MPI [18]: 60 | IC50 [19]: 0.043 µg/mL | IC80 [19]: 0.259 µg/mL | MPI [19]: 100 | IC50 [20]: > 50 µg/mL | IC80 [20]: > 50 µg/mL | MPI [20]: 12 | IC50 [21]: 0.433 µg/mL | IC80 [21]: 1.49 µg/mL | MPI [21]: 100
